Test results taken from patent publication US20230287120A1 (ALLOGENE THERAPEUTICS, published 2023).

T1: cynomolgus monkey DLL3 extracellular domain (ECD) with C-terminal 8xHis tag and Avi tag (cynomolgus monkey, UniProt A0A2K5WSR1 27-490)
T1 construct: extracellular domain; Expressed in Expi293, purified by IMAC and SEC; also called cynoDLL3; cyno DLL3; not shown: Avi tag
T1 sequence: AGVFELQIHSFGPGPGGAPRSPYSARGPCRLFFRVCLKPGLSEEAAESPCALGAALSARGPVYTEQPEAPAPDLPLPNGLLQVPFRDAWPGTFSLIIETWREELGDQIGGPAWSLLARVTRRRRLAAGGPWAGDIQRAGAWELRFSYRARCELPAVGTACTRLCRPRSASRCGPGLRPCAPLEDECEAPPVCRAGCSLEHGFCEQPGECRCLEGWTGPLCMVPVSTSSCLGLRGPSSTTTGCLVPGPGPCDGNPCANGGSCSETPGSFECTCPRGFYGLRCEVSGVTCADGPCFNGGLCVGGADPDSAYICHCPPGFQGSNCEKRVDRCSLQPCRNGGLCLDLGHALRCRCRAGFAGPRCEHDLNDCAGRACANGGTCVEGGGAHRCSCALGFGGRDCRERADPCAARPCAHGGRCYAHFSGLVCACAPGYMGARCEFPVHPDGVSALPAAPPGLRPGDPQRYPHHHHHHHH

T2: human DLL3 extracellular domain (ECD) with C-terminal 8xHis tag and Avi tag (human, UniProt Q9NYJ7 27-492)
T2 construct: extracellular domain; Expressed in Expi293, purified by IMAC and SEC; also called huDLL3; not shown: Avi tag
T2 sequence: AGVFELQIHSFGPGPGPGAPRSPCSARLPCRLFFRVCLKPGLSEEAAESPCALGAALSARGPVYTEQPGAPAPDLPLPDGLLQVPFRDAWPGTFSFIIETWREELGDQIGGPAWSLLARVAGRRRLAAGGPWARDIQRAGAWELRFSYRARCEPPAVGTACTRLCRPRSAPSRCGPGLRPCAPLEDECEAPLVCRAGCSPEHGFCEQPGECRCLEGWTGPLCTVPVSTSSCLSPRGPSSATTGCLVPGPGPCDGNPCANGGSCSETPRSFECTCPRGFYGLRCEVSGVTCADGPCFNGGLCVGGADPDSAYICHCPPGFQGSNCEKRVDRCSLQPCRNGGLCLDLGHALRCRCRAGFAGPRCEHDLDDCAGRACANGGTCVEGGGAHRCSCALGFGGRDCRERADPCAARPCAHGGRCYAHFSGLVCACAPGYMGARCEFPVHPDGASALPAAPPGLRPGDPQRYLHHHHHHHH

T3: mouse DLL3 extracellular domain (ECD) with C-terminal 8xHis tag and Avi tag (mouse, UniProt O88516 33-490)
T3 construct: extracellular domain; Expressed in Expi293, purified by IMAC and SEC; also called msDLL3; not shown: Avi tag
T3 sequence: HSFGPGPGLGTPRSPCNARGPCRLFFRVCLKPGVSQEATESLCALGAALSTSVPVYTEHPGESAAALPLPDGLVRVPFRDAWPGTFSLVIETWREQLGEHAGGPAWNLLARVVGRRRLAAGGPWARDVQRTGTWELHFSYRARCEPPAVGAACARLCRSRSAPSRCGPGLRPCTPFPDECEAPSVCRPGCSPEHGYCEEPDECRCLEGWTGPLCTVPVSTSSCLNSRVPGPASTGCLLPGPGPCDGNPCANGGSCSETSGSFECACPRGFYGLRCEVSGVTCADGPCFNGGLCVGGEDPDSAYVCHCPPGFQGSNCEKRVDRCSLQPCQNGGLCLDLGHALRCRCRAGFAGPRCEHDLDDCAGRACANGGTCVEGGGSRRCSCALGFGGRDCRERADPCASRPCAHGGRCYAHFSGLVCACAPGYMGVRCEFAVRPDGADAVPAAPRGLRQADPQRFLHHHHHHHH

B1: 26C8 scFv-Fc fusion (Fc fusion, not shown: a dimerising Fc or GST)
scFv: QVQLQESGPGLVKPSETLSLTCTVSDNSISNYYWSWIRQPPGKGLEWIAYIYYSGTTNYNPSLKSRVTISLDTSKNQFSLQLSSVTAADAAVYYCARVFHWGFAFDIWGQGTMVTVSSGGGGSGGGGSGGGGSGGGGSEIVLTQSPGTLSLSPGERATLSCRASQRVSNTYLAWYQQNPGQAPRLLIYGASSRATGIPDRFSGSGSGTDFTLTISRLEPEDFAVYYCQQYGTSPLTFGGGTKVEIK
notes: scFv-Fc expressed in Expi293
B2: 2A6.C5 scFv-Fc fusion (Fc fusion, not shown: a dimerising Fc or GST)
scFv: QVQLQESGPGLVKPSETLSLTCTVSNVSISSYYWSWIRQPPGKGLEWIGYIYYSGTTNYNPSLKSRVTMSVDTSKNQFSLKLSSVTAADTAVYFCARLSNWGFAFDIWGQGTMVTFSSGGGGSGGGGSGGGGSGGGGSEIVLTQSPGTLSLSPGERATLSCRASQTISSSYLAWYQQKPGQAPRLLIYGASSRATGIPDRFSGSGSGTEFTLTISRLEPEDFAVYYCQQYGWSPITFGQGTRLEIK
notes: scFv-Fc expressed in Expi293
B3: 3F2 scFv-Fc fusion (Fc fusion, not shown: a dimerising Fc or GST)
scFv: QVQLQESGPGLVKPSGTLSLTCAVSGGSISSNNWWSWVRQPPGKGLEWIGDIHHSGSTNYKPSLKSRVTISVDKSKNQFSLNLISVTAADTAVYYCAREAGGYFDYWGQGILVTVSSGGGGSGGGGSGGGGSGGGGSDIQMTQSPSTLSASVGDRVTITCRASQSISSWLAWYQQKPGKAPKLLISKASSLESGVPSRFSGSGSGPEFTLTISSLQPADFATYYCQQYNSYSTFGQGTKLEIK
notes: scFv-Fc expressed in Expi293
B4: 10G1-K scFv-Fc fusion (Fc fusion, not shown: a dimerising Fc or GST)
scFv: EVQLLESGGGLVQPGGSLRLSCAASGFTFSSYAMNWVRQAPGKGLEWVSTISGSGGSTYYADSVKGRFTISRDNSKNTLYLQMNSLRAEDTAVFYCAIDPEYYDILTGGDYWGQGTLVTVSSGGGGSGGGGSGGGGSGGGGSDIQMTQSPSAMSASVGDRVTITCRASQGISNYLAWFQQKPGKVPKRLIYAASSLQSGVPSRFSGSGSGTEFTLTISSLQPEDFATYFCLQHDSFPLTFGGGTKVEIK
notes: scFv-Fc expressed in Expi293
B5: 2G1 scFv-Fc fusion (Fc fusion, not shown: a dimerising Fc or GST)
scFv: QLQLQESGPGLVKPSETLSLTCTVSGGSISSSSYYWGWIRQPPGKGLEWIGSIYYSGNIYHNPSLKSRVSISVDTSKNQFSLRLSSVTAADTAVYYCAREIIVGATHFDYWGQGTLVTVSSGGGGSGGGGSGGGGSGGGGSAIQMTQSPSSLSASVGDRVTITCRASQGIRNDLGWYQQKPGKAPELLIYAASSLQSGVPSRFSGSGSGTDFTLTISSLQPEDFATYYCLQDYNYPLTFGPGTKVDIK
notes: scFv-Fc expressed in Expi293
B6: 17A2 scFv-Fc fusion (Fc fusion, not shown: a dimerising Fc or GST)
scFv: QVQLQESGPGLVKPSGTLSLTCVVFGDSISSSNWWSWVRQPPGKGLEWIGEVFHSGSTNYNPSLKSRVTISVDKSKNQFSLKLSSVTAADTAVYYCARAAVAGALDYWGQGTLVTVSSGGGGSGGGGSGGGGSGGGGSDIVMTQSPDSLAVSLGERATINCKSSQSVLYSSNNKNYLAWYQQKPGQPPNLLVYWASTRESGVPDRFSGAGSGTDFTLTISSLQAEDVAVYYCQQYYGTSWTFGQGTKVEIK
notes: scFv-Fc expressed in Expi293
B7: 8E11 scFv-Fc fusion (Fc fusion, not shown: a dimerising Fc or GST)
scFv: QVQLQESGPGLVKPSETLSLTCTVSGDSISNYYWTWIRQPPGKGLEWIGYIYYSGTTNSNPSLKSRVTVSLDTSKSQFSLNLSSVTAADTAVYYCARVFNRGFAFDIWGQGTMVTVSSGGGGSGGGGSGGGGSGGGGSEIVLTQSPGTLSLSPGERATLSCRASQRISNTYLAWYQQKPGQAPRLLIYGASSRATGIPDRFSGSGSGTDFTLTISRLEPEDFAAYYCQQYDTSPLTFGGGTKVEIK
notes: scFv-Fc expressed in Expi293
B8: 4H8 scFv-Fc fusion (Fc fusion, not shown: a dimerising Fc or GST)
scFv: QVQLQQSGPGLVKPSQTLSLTCAISGDSVSSNSATWNWIRQSPSRGLEWLGRTYYRSKWYDDYAVSVKSRITINPDTSKNHLSLHLNSVTPEDTAVYYCAGGGLVGAPDGFDVWGQGTMVTVSSGGGGSGGGGSGGGGSGGGGSQSVLTQPPSASGTPGQRVTISCSGSSSNIGSDPVNWYQQLPGTAPKLLIYSNNQRPSGVPDRFSGSKSGTSASLAISGLQSEDEADYYCSAWDDSLNGYVFGTGTKVTVL
notes: scFv-Fc expressed in Expi293
B9: 9D3 scFv-Fc fusion (Fc fusion, not shown: a dimerising Fc or GST)
scFv: QVQLQESGPGLVKPSETLSLTCTVSDDSISNYYWSWIRQPPGKGLEWIGYIFYSGTTNHNPSLKSRLTISLDKAKNQFSLRLSSVTAADTAVYYCARVFNWGFAFDIWGQGTMVTVSSGGGGSGGGGSGGGGSGGGGSEIVLTQSPGTLSLSPGERATLSCRASQRISRTYLAWYQQKPGQAPRLLIYGASSRATGIPDRFTGSGSGTDFTLTISRLEPEDFAVYYCQQYGTSPLTFGGGTKVEIN
notes: scFv-Fc expressed in Expi293
B10: 6D8 scFv-Fc fusion (Fc fusion, not shown: a dimerising Fc or GST)
scFv: QITLKESGPTLVKPTQTLTLTCTFSGFSLSTRGVGVGWIRQPPGKALEWLALIYWNDDKRYSPSLQTRLTITKDTPKNQVVLTMTNMDPVDTATYYCARSNWGNWYFALWGRGTLVTVSSGGGGSGGGGSGGGGSGGGGSEIVLTQSPATLSLSPGERATLSCRASQSVSSYLAWYQQKPGQAPRLLIYDAFYRATGIPARFSGSGSGTDFTLTISSLEPEDFAVYYCQHRSNWPITFGQGTRLEIK
notes: scFv-Fc expressed in Expi293
B11: 7F9 scFv-Fc fusion (Fc fusion, not shown: a dimerising Fc or GST)
scFv: EVQLVESGGGLVQPGGSLRLSCAASGFTFSSHDMHWVRQATGKGLEWVSAIGIAGDTYYSGSVKGRFTISRENAKNSLYLQMNSLRAGDTAVYYCARANWGEGAFDIWGQGTMVTVSSGGGGSGGGGSGGGGSGGGGSDIQMTQSPSSLSASVGDRVTITCRASQGISDYLAWYQQKPGKIPKLLIYAASTLQSGVPSRFSGSGSGTDFTLTISSLQPEDVATYYCQKYNSVPLTFGGGTKVEIK
notes: scFv-Fc expressed in Expi293
B12: 9H12-K scFv-Fc fusion (Fc fusion, not shown: a dimerising Fc or GST)
scFv: QVQLVQSGAEVKKPGASVKVSCKASGYTFTGYSIHWVRQAPGQGLEWMGWINPNSGGTFYAQKFQGRVTMTRDTSISTVYMELSRLRSDDTAVYYCARDGWGDYYYYGLDVWGQGTTVTVSLGGGGSGGGGSGGGGSGGGGSDIQMTQSPSSVSASVGDRVTITCRASQDISSWLAWYQQKPGKAPKLLIYTASSLQGGVPSRFSGSGSGTDFTLTISSLQPEDLATYSCQQANVFPYTFGQGTKLEIK
notes: scFv-Fc expressed in Expi293
B13: 6F8 scFv-Fc fusion (Fc fusion, not shown: a dimerising Fc or GST)
scFv: QVQLVQSGAEVKKPGSSVKVSCKASGGTFTNYCISWVRQAPGQGLEWMGGIIPIFGTTNYAQTFQGRVTITADKSTSTAYMELSSLRSEDTAVYYCARDNGDRYYYDMDVWGQGTTVTVSSGGGGSGGGGSGGGGSGGGGSQSVLTQPPSVSAAPGQKVTISCSGSSSNIGNNYVSWYQQLPGTAPKLLIYDNNKRPSGIPDRFSGSKSGTSATLGITGLQTGDEADYYCGTWDSSLSAVVFGGGTKLTVL
notes: scFv-Fc expressed in Expi293

Molecular target: T1, cynomolgus monkey DLL3 extracellular …
Assay: SPR (Biacore), 37 C; scFv-Fc captured on chip, cyno DLL3 ECD in solution; 1:1 Langmuir fit
Protocol: (§1) The antibody binding kinetics were determined by surface plasmon resonance (Biacore™ surface plasmon resonance (SPR) system, GE Healthcare Bio-Sciences, Pittsburgh Pa.). The antibodies diluted in HBS-T+ running buffer (0.01 M HEPES pH 7.4, 0.15 M NaCl, 0.05% v/v Tween20, 1 mg/mL BSA) were captured on a CM4 chip immobilized with an antibody specific for the anti-DLL3 antibody constant domains. Purified DLL3 was serially diluted into HBS-T+, injected for 2 min at 30 uL/min and a dissociation time of 10 min then the surface regenerated with either 10 mM Glycine-HCl pH 1.7 or phosphoric acid between injections. […] Equilibrium dissociation constant (Kd) values are calculated as koff/kₒₙ.

Kd	Binder
0.00451 µM	B1
0.0468 µM	B2
0.00681 µM	B3
0.0288 µM	B4
0.0205 µM	B5
< 0.00097 µM	B6
0.0105 µM	B7
0.027 µM	B8
0.0218 µM	B9

Molecular target: T2, human DLL3 extracellular domain (ECD) …
Assay: SPR (Biacore), 37 C; scFv-Fc captured on chip, human DLL3 ECD in solution; 1:1 Langmuir fit
Protocol: as §1

Kd	Binder
< 0.0012 µM	B10
0.00553 µM	B1
0.0484 µM	B2
0.00818 µM	B3
0.0273 µM	B11
0.186 µM	B12
0.0408 µM	B13
0.0263 µM	B4
0.0172 µM	B5
0.00382 µM	B6
0.0112 µM	B7
0.0233 µM	B8
0.0233 µM	B9

Molecular target: T3, mouse DLL3 extracellular domain (ECD) …
Assay: SPR (Biacore), 37 C; scFv-Fc captured on chip, mouse DLL3 ECD in solution; 1:1 Langmuir fit
Protocol: as §1

Kd	Binder
< 0.0015 µM	B10
0.00305 µM	B1
0.0421 µM	B2
0.0193 µM	B13
0.0277 µM	B4
0.00261 µM	B5
0.00703 µM	B7
0.0186 µM	B8
0.00719 µM	B9
